The text below walks through data of PMC7177926, “Spliceosomal Protein Gene BmSPX Regulates Reproductive Organ Development in Bombyx mori”.

This series has as its target MBP-BmPSI (P-element somatic inhibitor) (Bombyx mori, UniProt A8R081 1-703). Put plainly: EMSA; RNA dissolved in protein purification buffer, 20 mM Tris, 20 mM NaCl; pH, temperature and EMSA binding details not given. The conditions noted are these: protein: recombinant; tags: N-terminal His6-MBP-TEV; label: biotin at 5' and 3' ends; single strand. (In EMSA bound probe runs differently from free probe, usually more slowly.)

Chain of MBP-BmPSI (P-element somatic inhibitor) (A8R081 entry or part of it): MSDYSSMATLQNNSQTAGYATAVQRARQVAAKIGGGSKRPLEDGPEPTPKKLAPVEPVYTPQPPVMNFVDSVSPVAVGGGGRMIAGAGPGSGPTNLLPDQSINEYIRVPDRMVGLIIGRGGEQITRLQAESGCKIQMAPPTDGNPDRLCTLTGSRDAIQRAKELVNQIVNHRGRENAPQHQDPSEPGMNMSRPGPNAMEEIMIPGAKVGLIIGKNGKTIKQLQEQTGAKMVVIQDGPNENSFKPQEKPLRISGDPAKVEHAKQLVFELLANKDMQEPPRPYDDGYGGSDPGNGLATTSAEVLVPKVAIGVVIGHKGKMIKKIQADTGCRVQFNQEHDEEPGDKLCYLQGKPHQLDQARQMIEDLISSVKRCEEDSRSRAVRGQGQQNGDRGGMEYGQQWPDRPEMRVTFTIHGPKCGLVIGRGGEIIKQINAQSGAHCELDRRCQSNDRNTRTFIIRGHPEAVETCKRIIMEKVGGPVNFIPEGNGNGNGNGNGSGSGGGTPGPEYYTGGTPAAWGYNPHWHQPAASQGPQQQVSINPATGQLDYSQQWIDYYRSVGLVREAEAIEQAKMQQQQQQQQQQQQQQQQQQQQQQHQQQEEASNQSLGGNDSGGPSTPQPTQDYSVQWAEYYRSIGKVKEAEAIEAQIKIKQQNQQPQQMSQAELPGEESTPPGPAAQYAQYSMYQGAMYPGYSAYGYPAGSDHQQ

B1: CE1 RNA probe (ssRNA)
RNA: UUAAUAAUAUAAGUGGUGUA
As for B1, the binding result is recorded as “binds”.
